Measured values reported in the supplement of paper PMC10567573.

B1: TNNI2 (parent)
chain: DWRKNIEEKSGMEGRKKMFESES
B2: TRIM29 (parent)
chain: RKCPVHGKTMELFCQTDQTCICYL

Variants of: B1
Test: protein stability index of a GFP-peptide fusion (GPS, HEK-293T) (PSI 1-6); higher = more stable
Conditions: c terminus: native
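Note: lentivirally expressed fusions sorted by FACS into six bins by GFP to DsRed ratio, PSI derived from sequencing read proportions per bin multiplied by bin number.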

Variant	protein stability index
S23I	1.59
S23P	2.42
S23K	2.63
S23G	3.42
S23N	4.46
S23R	2.15
S23T	1.42
S23H	2.87
S23Y	2.59
S23F	3.02
S23C	1.53
S21E	5.2
S21W	3.35
S21L	3.92
S21M	3.92
S21N	3.39
S21Q	4.96
S21R	3.41
S21A	1.5
S21Y	4.05
S21K	3.49
S21D	5.47
S21C	3.19
S21T	4.47

Variant	protein stability index
S21F	4.49
S21V	2.39
S21H	2.9
S21P	1.37
E20Y	3.81
E22S	5.13
E22F	4.22
E22T	5.25
E22W	3.86
E22N	4.44
E22D	3.81
E22H	4
E22P	2.06
E22C	3.71
E22Y	3.84
E22V	3.77
E22K	4.67
E22R	1.58
E22I	3.3
E22Q	4.33
E22L	3.17
E22M	3.29
E22G	5.04

Variants of: B2
Test: as above
Conditions: c terminus: a fixed tail appended

Variant	protein stability index
P4W	2.91
P4T	2.25
P4D	2.63
P4R	3.52
P4C	4.04
P4Q	1.95
P4V	2.21
P4I	2.52
P4A	2.54
P4L	3.39
P4F	3.42
P4K	2.58
P4N	3.09
P4Y	2.12
P4S	2.41
P4E	3.3
G7D	3.12
G7Y	2.14
G7C	2.5
G7K	1.63
G7Q	3.09
G7H	2.38
G7P	2.46
G7A	2.25

Variant	protein stability index
G7L	2.26
G7W	1.4
G7N	3.49
G7T	2.46
G7E	2.6
G7F	2.55
G7V	2.04
G7S	2.57
G7M	2.35
G7I	3.48
F13L	2.04
F13Y	2.32
F13G	2.93
F13C	2.23
F13E	2.47
F13P	2.4
F13T	2.38
F13R	1.96
F13I	2.89
F13V	2.58
F13N	2.72
F13K	2.99
F13H	2.5
F13S	2.5

Variant	protein stability index
F13A	1.78
F13Q	3.27
F13M	3.16
C3S	2.54
C3R	2.12
C3N	2.92
C3V	1.86
C3D	2.13
C3P	1.97
C3Q	2.64
C3G	2.1
C3W	2.72
C3Y	1.9
C3E	2.52
C3T	3.1
C3L	2.3
C3F	2.35
C3H	2.27
C3A	3.58
C3K	1.89
C3I	3.19
T16I	1.98
T16S	2.34
T16D	2.1

Variant	protein stability index
T16A	2.24
T16L	1.56
T16G	3.39
T16H	2.44
T16E	1.78
T16K	2.15
T16N	2.62
T16W	2.17
T16P	2.06
T16V	2.6
T16F	2.51
T16C	3.37
T16R	1.91
T16Q	2.91
T16Y	2.54
T16M	1.57
V5G	3.21
V5M	2.58
V5T	2.46
V5N	4.09
V5P	2.87
V5D	3.62
V5C	3.08
V5K	2.3

Variant	protein stability index
V5A	1.72
V5L	1.92
V5R	2.42
V5Y	2.71
V5I	2.79
V5E	1.79
V5H	3.76
V5S	3.1
V5Q	1.59
V5W	2.52
R1L	3.04
R1D	1.67
R1K	2.22
R1T	2.32
R1C	2.39
R1G	3.33
R1V	2.98
R1S	2.19
R1I	1.65
R1F	1.95
R1H	3
R1P	2.66
R1Q	1.91
R1Y	2.48

Variant	protein stability index
R1A	2.68
R1W	2.46
R1M	1.95
R1N	2.84
R1E	1.71
T9Y	2.25
T9P	1.98
T9C	1.75
T9A	2.95
T9I	1.49
T9K	2.46
T9H	1.78
T9L	2.56
T9N	2.79
T9S	3.03
T9Q	1.77
T9W	2.42
T9E	2.06
T9F	3.32
T9R	1.21
T9V	2.41
T9G	2.72
T9D	2.81
T9M	2.77

Variant	protein stability index
K2S	2.27
K2L	2.36
K2H	2.15
K2C	1.82
K2W	2.91
K2G	2.57
K2P	3.02
K2V	2.02
K2N	2.68
K2Y	1.8
K2E	1.65
K2A	2.54
K2I	1.94
K2R	1.69
K2Q	2.12
K2F	2.36
K2D	2.15
K2M	2.17
K2T	1.7
C14G	1.86
C14Q	2.03
C14T	3.06
C14A	2.5
C14L	2.27

Variant	protein stability index
C14P	2
C14E	2.77
C14I	2.41
C14M	1.46
C14N	2.33
C14S	2.35
C14H	2.83
C14K	1.89
C14V	1.47
C14R	2.5
C14W	1.89
C14D	2.1
C14Y	2.59
C14F	3.17
H6W	1.96
H6K	2.29
H6D	3.05
H6L	2.85
H6G	2.4
H6F	2.31
H6I	2.37
H6V	2.44
H6C	1.62
H6A	2.38

Variant	protein stability index
H6P	1.98
H6R	4.01
H6N	3.27
M10H	2.43
M10R	2.84
M10N	2.14
M10L	1.99
M10F	2.58
M10S	2.43
M10P	2.35
M10C	1.94
M10E	1.46
M10A	1.87
M10I	3.45
M10Y	1.83
M10T	1.49
M10Q	1.87
M10W	1.46
M10K	2.02
M10V	1.98
M10G	1.65
M10D	2.44
E11A	1.83
E11M	1.7

Variant	protein stability index
E11L	3.23
E11N	2.55
E11Y	1.8
E11W	2.41
E11V	2.9
E11P	2.95
E11I	2.77
E11Q	1.47
E11H	2.56
E11K	1.92
E11F	1.76
E11S	2.85
E11R	2.14
E11D	2.49
E11G	2.31
E11T	2.66
Q15L	3.21
Q15S	2.48
Q15R	1.78
Q15T	2.14
Q15M	2.43
Q15Y	1.92
Q15C	3.22
Q15V	2.75

Variant	protein stability index
Q15A	2.75
Q15H	2.26
Q15D	1.52
Q15F	3.06
Q15G	2.93
Q15I	1.88
Q15P	2.66
Q15N	2
Q15K	1.79
Q15E	1.56
L12H	2.66
L12K	1.46
L12T	1.58
L12R	1.99
L12D	2.81
L12V	2.87
L12F	1.61
L12M	2.98
L12S	2.65
L12Y	2.86
L12I	2.47
L12G	1.68
L12C	2.81
L12A	2.21

Variant	protein stability index
L12P	2.08
L12N	1.99
L12E	1.53
L12W	1.08
K8P	1.48
K8M	2.45
K8Q	2
K8S	1.44
K8L	1.37
K8H	2.83
K8D	1.94
K8C	1.85
K8V	2.54
K8Y	1.23
K8E	2.59
K8N	2.56
K8G	1.59
K8T	2.52
K8F	2.24
K8R	2.09
K8W	2.77
K8A	2.58
K8I	1.59
